This is an account of results in US20180252712A1, “RECEPTOR FOR NOROVIRUS AND USES THEREOF” (priority 2017, published 2018).

Assay [1] has as its system MNoV^CW3. Nature of the assay: MNoV binding assay to BV2 cells (bound genomes by qPCR). It is filed as cell-based, murine norovirus. The method, then: MNoV^CW3 quantitiatve PCR (qPCR) was performed as previously described. Briefly, 5 μl of extracted viral RNA was used for cDNA synthesis using random hexamers and ImProm Reverse Transcriptase (Promega, Madison, Wis.) in 20 μl total volume. TaqMan qPCR was performed in triplicate on each sample and standard with forward primer SEQ ID NO:20 (5′ […] 3′), reverse primer SEQ ID NO:21 (5′ GCGCTGCGCCATCACTC 3′), and probe.
MNoV^CW3 binding to BV2 cells was performed for 1 hour at 4° C. in 0.5 ml complete growth media. sCD300lf was incubated with MNoV^CW3 for 30 minutes at room temperature prior to addition to cells. α-CD300lf was incubated with cells for 30 minutes at 4° C. prior to the addition of MNoV^CW3. BV2 cells were used at final concentration of 2×10^6 cells/ml, and MNoV^CW3 was used at a final concentration of 1.6×10^9 copies/ml (2.5×10^6 PFU/ml). Cells were centrifuged at 500 g for 5 min at 4° C. to remove unbound virus. Cells were washed with four 1.0 ml washes with PBS containing 2.5% FBS and 2 mM EDTA. The cell pellet was resuspended in 100 μl PBS, and RNA was extracted with the ZR Viral RNA kit (Zymo Research) according to manufacturer instructions. qPCR was performed as described above. Binding experiments were done in triplicate in each of at least three independent experiments. A condition containing virus but no cells was used to determine assay background.
(§1) To determine the effect of glycans on MNoV binding, parental BV2 cells, ΔCD300lf BV2 clone 1 cells complemented with an empty lentivirus, and ΔCD300lf BV2 clone 1 cells complemented with CD300lf were cultured in the presence of 1 μg/ml of kifunensine (Santa Cruz Biotechnology) for at least 48 hours prior to use. Kifunensine activity was determined by staining cells with FITC-conjugated wheat germ agglutinin (WGA) at 1 μg/ml final concentration (Sigma Aldrich). The reduction in glycosylation was determined by comparing the mean fluorescence intensity (MFI) with and without kifunensine treatment. WGA binding was determined at the time of each binding assay.
On the technique in general: In qPCR the cycle at which signal appears reflects the starting amount.

A further assay has as its system BV2 cells. Nature of the assay: Kifunensine treatment, WGA-FITC staining of cell surface carbohydrates. The class given is cell-based, mouse. Particulars: 1 μg/ml kifunensine for at least 48 hours. On the procedure:
as §1

The subject of assay [2] is MNoV^CW3. In words: MNoV neutralization with α-CD300lf and sCD300lf (cytotoxicity, CellTiter-Glo). It is filed as cell-based, murine norovirus. The conditions noted are these: virus preincubated with protein, 0.01 to 10 μg/ml; 24 hours post-infection. The method, then: MNoV neutralization was assessed by measuring cytotoxicity. 2.5×10^4 BV2 cells were plated per well of a 96-well plate. For antibody-mediated neutralization, cells were then incubated for 1 hour at 37° C. with polyclonal α-CD300lf (R&D systems AF2788) or an isotype control (R&D systems AB-108-C) at a final concentration from 0.01 to 10 μg/ml. MNoV^CW3 was then added at an MOI of 5 in a total volume of 100 μl. After 24 hours at 37° C., 25 μl of CellTiter-Glo (Promega) was added per well to measure cellular ATP concentrations. For sCD300lf neutralization, the assay was performed similarly except that 1.25×10^5 PFU of MNoV^CW3 was incubated with sCD300lf or a control protein (Domain III of West Nile Virus Envelope) at a final concentration from 0.01 μg to 10 μg/ml prior to addition of BV2 cells. Relative luminescence units were detected on Molecular Devices SpectraMax M2 plate reader. All conditions were normalized to an uninfected control. Each condition was done in quadruplicate in each of three independent experiments.

In assay [3] the test system is MNoV^CW3. In words: BMDM infection, FACS for intracellular MNoV NS1/2 expression. It is filed as cell-based, murine norovirus. The conditions noted are these: virus preincubated with sCD300lf or cells treated with α-CD300lf; MOI 5.0. On the procedure:
BL6 myeloid progenitors were obtained from mice (FIG. 2E) or from HoxB8-immortalized progenitors (FIG. 2D) as previously described.HoxB8-immortalized progenitors were maintained in RPMI 1640 supplemented with 1 μM β-estradiol and 25 ng/ml GM-CSF. Progenitors were differentiated into macrophages by washing the cells in PBS and plating 1×10^6 cells into BMDM media (Dulbeco's Modified Eagle Medium, 10% fetal bovine serum, 5% horse serum, 10% CMG14-12 [6], 1 mM sodium pyruvate, 2 mM L-glutamine). After 7 days of differentiation, macrophages were dissociated and 5×10^6 cells/well were seeded into a 6-well dish. Three days later, MNoV^CW3 was added to cells at an MOI of 5.0. One day post infection, MNoV NS1/2 expression was detected by flow cytometry.
Infected cells were fixed and permeabilized with Cytofix/Cytoperm (BD biosciences) Rabbit polyclonal antibody targeting the MNoV nonstructural protein NS1/2 antibody was added at a 1:5000 dilution (Gift from Vernon Ward). Cells were incubated for 30 min. at room temperature. Cells were then washed and DyLight 649 donkey anti-rabbit IgG was added and incubated for 30 min. Cells were then washed and analyzed on an LSRII flow cytometer (BD). At least 20,000 events were collected per condition. Each experiment was performed in triplicate in each of three independent experiments.

Assay [4] has as its system MNoV^CW3. In words: Spleen-derived MNoV neutralization (plaque assay). It is filed as cell-based, murine norovirus. The conditions noted are these: 75 PFU spleen-derived or BV2-derived virus, 10 μg/ml, 30 min preincubation. On the procedure:
BV2 cells were seeded at 1×10^6 cells/well of a six-well plate. 16-24 hours later, media was removed and 10-fold dilutions of cell lysate is applied to each well for 1 hour with gentle rocking. Viral inoculum was removed and 2 ml of overlay media was added (MEM, 10% FBS, 2 mM L-Gluatmine, 10 mM HEPES, and 1% methylcellulose). Plates were incubated for 2-3 days prior to visualization with crystal violet solution (0.2% crystal violet and 20% ethanol).
To isolate in vivo derived MNoV^CW3, five 7-8 week old C57BL/6J were inoculated PO with 10^6 PFU MNoV^CW3 in 25 μl PBS. Three days post inoculation, mice were sacrificed and spleens were harvested. Spleens were processed by bead beating with 1 mm silica beads (Biospec, Bartlesville, Okla.) for 1 minute. The spleen extract was centrifuged for 5 minutes at 3,000 g, the supernatant was filtered through a 0.22 μm filter, frozen at −80° C., and titered on BV2 cells as described previously.
75 PFU of either BV2 cell-derived or spleen-derived MNoV^CW3 was incubated for 30 min. at room temperature with either sCD300lf or WNV E DIII at 10 μg/ml final concentration in 100 μl total volume of D10. Each sample was then added to a confluent monolayer of BV2 cells in a 6-well plate and incubated for 1 hr. at room temperature. […] Complete media containing methylcellulose was then added and plaque formation was assessed as described previously. […]

Assay [5] deals with MNoV^CW3. In words: Challenge of STAT1−/− mice with preincubated MNoV^CW3, survival. The conditions noted are these: PO 10^3 or 10^5 PFU MNoV^CW3 preincubated at 10 μg/ml, 28 days. It is filed as in vivo, murine norovirus. On the procedure:
B6.129S(Cg)-Stat1^tm1Div/J (STAT1^−/−) mice and C57BL/6J (Jackson Laboratories, Bar Harbor, Me.) and Fut2^−/− (B6.129X1-Fut2^tm1Sdo/J) mice (a generous gift from Dr. Alexander V. Chervonsky) were housed in a specific-pathogen free environment at Washington University. The care and use of all animals was approved by and in accordance with the Washington University Animal Studies Committee. For the challenge of STAT^−/− mice, MNoV^CW3 was incubated with sCD300lf or WNV E DIII at a final concentration of 10 μg/ml for 30 minutes at room temperature. STAT1^−/− mice were challenged with 25 μl PO of 10^3 or 10^5 PFU of MNoV^CW3 diluted in D10. STAT1^−/− mice were singly housed immediately after inoculation and monitored daily for survival for 28 days. Experiments were performed three independent times with gender-balanced littermate controls at both 10^3 and 10^5 PFU challenge doses.

For the molecule `O=C1N[C@@H]2[C@@H](O)[C@@H](O)[C@H](O)[C@@H](CO)N2C1=O` [kifunensine], the “MNoV^CW3 binding to kifunensine treated cells” value in the assay on MNoV^CW3 [1] (wild type or CD300lf-mutant BV2 cells, 1 μg/ml kifunensine) is recorded as “did not significantly alter MNoV^CW3 binding”. In the assay with BV2 cells, the “Cell surface carbohydrates (WGA-FITC binding, MFI)” value is given as “significantly reduced cell surface carbohydrates”.

B1: sCD300lf: recombinant, soluble ectodomain of mouse CD300lf (residues 20-128 of GenBank AAH57864.1), expressed in E. coli and refolded (protein)
chain: MEDPVTGPEEVSGQEQGSLTVQCRYTSGWKDYKKYWCQGVPQRSCKTLVETDASEQLVKKNRVSIRDNQRDFIFTVTMEDLRMSDAGIYWCGITKGGLDPMFKVTVNIGP
For the molecule B1, the “MNoV^CW3-induced cytopathic effect in BV2 cells (cell viability)” value in the assay on MNoV^CW3 [2] is listed as “neutralized MNoV^CW3-induced cytopathic effect”. For the same molecule, the “MNoV^CW3 infection of primary bone marrow-derived macrophages (NS1/2 expression by FACS)” value with MNoV^CW3 [3] is reported as “inhibited”. Moreover, the “Neutralization of MNoV isolated from spleens of MNoV^CW3-infected mice (plaque assay)” value in the assay with MNoV^CW3 [4] is listed as “remained sensitive to sCD300lf inhibition”. In addition, the “Protection from MNoV induced lethality (survival)” value in the assay with MNoV^CW3 [5] is recorded as “able to protect from MNoV induced lethality”. The “MNoV^CW3 binding to BV2ΔCD300lf cells” value in the assay with MNoV^CW3 [1] (BV2ΔCD300lf cells, cells treated with α-CD300lf or virus premixed with sCD300lf) is “not further inhibited”. Moreover, the “MNoV^CW3 binding to BV2 cells” value with MNoV^CW3 [1] (wild type BV2 cells, cells treated with α-CD300lf or virus preincubated with sCD300lf, 1 hour at 4° C.) was “reduced MNoV binding”.
